Measurements reported in patent US20240200091A1, “USE OF PROTOPORPHYRINOGEN OXIDASE” (BEIJING DABEINONG BIOTECHNOLOGY CO., LTD., priority 2021, published 2024).

B1: PPO6B: nucleotide sequence encoding protoporphyrinogen oxidase PPO6, maize common codon usage bias (nucleic acid)
DNA: ATGTCAAGTCCCAACGGGAAGTACCTTATGCTGTATAGCACGACTGATGGACACACCAAGACAATAATGGACACCATGGCGAAGCACATTATGGAAGAGGCCAAAGTTCAGTGCGACGTCGTAGACATGAGGGACGGGGACAAGTATGAACTTGCGGCTTACGAGAAGGTCATGCTCGGCGCCTCCATAAGGTACGGCTTCTTCAGCCGCACCTTGCATACATATACTACCCATCATGTTGATGAGCTTAACTCCATGCCATCGGCATTCTTTGGTGTTAATTTAACGGCGCGGAAAACTAGCAAGAACACAGCCATGACCAATGCTTATACACGGAAATTCCTGGATCAATCTATGTGGGTGCCACAGCTGAGTGGGGTCTTCGCCGGTGCACTCTGGTACCCCCGCTACAACTTTTTTGATCGAGTGATGATCCAGTTCATCATGAAGGTGACGGGCGGCGAAACAAATACTACAAAAGAGATCGTCTACACGGACTGGGATGCAGTGCACAAGTTTGCTACTGACTTCGTCCAACTCCCTGCCACCGCCATTCCAAGATCTAAACCTGCTACGTCGGTGCCGCCGGCGTCAGTAGCAAACTATGATAATGGTGCTCGTGTTGCGCTGGTGGTGGTTGGAATTTCTGCAGCCATCATCTTCGGCCGCAGGCTAATTTTGGCCAAGAGATTTTGA
modifications: The nucleotide sequence of PPO6B
B2: PPO12B: nucleotide sequence encoding protoporphyrinogen oxidase PPO12, maize common codon usage bias (nucleic acid)
DNA: ATGAAGAAGGCGCTGTTTTTATATTCAAGTCGTGAGGGCCAAACAAAAAAAATATTGAACTACATTGAAGGTGAATTGTCCAATTTTGAGTGCGAGCTCGTCGACCTCCACACGCTGGACGCCATTGATTTCTCGGTCTATGACAGGGTTTTGATTGGAGCAAGCATACGGTACGGCCACCTAAACAAGAAACTTTATCAATTCATTGAGAATAACCGCCAGCAGCTGGAAAATCATACCAAGGTGGCCTTCTTCTGTGTAAATCTTACTGCAAGGAAGGAAGATCAAGGCAAGGACACCCCTGAAGGGAGCGTCTACATCCAGAAGTTCCTGAAAAAATCTCCCTGGCAGCCAAAACTTATCGGGGTGTTCGCTGGCGCGCTCTACTACCCGAGATATGGTTTTTTTGACAAGATGATGATCAAGCTCATCATGACGCTGACAGATGGAGAGACTGATACTACAAAGGAGGTGGAGTACACCAACTGGAAGAAAGTTTCCCTCTTCGCCAAGAAGTTTGCTGAGCTTTGA
modifications: The nucleotide sequence of PPO12B
B3: PPO-APB: nucleotide sequence encoding Arsenophonus protoporphyrinogen oxidase PPO-AP (SEQ ID NO:65), maize common codon usage bias (nucleic acid)
DNA: ATGTCCTACCTCTTGCTGTATTCGGGGAAAAATGGTCAAACCAAGAAGATCATCCTCAAAATAACTGAATATCTTCGTAAAGAAGGAAAGCAGTGCGACGTCAGAGATCTTAACATGGACAAGAATTTTAATTTAAGTGTGTACCAGAAGGTTCTTGTCGGAGCTTCAATTCGCTACGGCCACTTCAACCCCGCCGTGCTGAACTTCGCGCAGAATCATCAAAAAGAGCTGAACACAATTCAATCTGCCTTCTTTGGCGTCAACCTGATGGCGAGGAAGCAAGGGAAGGATACACCAGAAACCAATGTTTATGTTCGGAAGTTTTTGGCTAAAATTCCATGGCAGCCGACGATCACCAACGTATTTAGCGGTGCACTCAGATATCCTCAGTACAAGTGGCTGGATAGGATAATGATCCAGTTCATCATGAAGATTACTGGCGGCGAGACAAATAAGAACAAGGAGGTGGAGTACACGGACTGGGAGAAAGTGGAATACTTCGCCCGCGAGTTCAATGCACTAAAATGA
modifications: The nucleotide sequence of PPO-APB

Assays:
Format in all cases: in vivo
transgenic maize plants [1] = experiment: saflufenacil tolerance of transgenic maize plants (spray, grade of pesticide damage); details: for The grade of pesticide damage/plant: number of plants of grade 0 / The grade of pesticide damage/plant: number of plants of grade 1 / The grade of pesticide damage/plant: number of plants of grade 2 / The grade of pesticide damage/plant: number of plants of grade 3: 7 DAT, 16 maize plants per genotype
transgenic maize plants [2] = experiment: oxyfluorfen tolerance of transgenic maize plants (spray, grade of pesticide damage); details: for The grade of pesticide damage/plant: number of plants of grade 0 / The grade of pesticide damage/plant: number of plants of grade 1 / The grade of pesticide damage/plant: number of plants of grade 2 / The grade of pesticide damage/plant: number of plants of grade 3: 7 DAT, 16 maize plants per genotype
transgenic maize plants [3] = experiment: flumioxazin tolerance of transgenic maize plants (spray, grade of pesticide damage); details: for The grade of pesticide damage/plant: number of plants of grade 0 / The grade of pesticide damage/plant: number of plants of grade 1 / The grade of pesticide damage/plant: number of plants of grade 2 / The grade of pesticide damage/plant: number of plants of grade 3: 7 DAT, 16 maize plants per genotype; for tolerance to flumioxazin: maize, flumioxazin at different concentrations (120 and 240 g ai/ha)
[4] = maize, saflufenacil at four-fold field concentration (100 g ai/ha)
[5] = maize, saflufenacil at two-fold field concentration (50 g ai/ha)
[6] = saflufenacil 50 g ai/ha (2x field concentration)
[7] = saflufenacil 100 g ai/ha (4x field concentration)
[8] = maize, oxyfluorfen at four-fold field concentration (720 g ai/ha)
[9] = maize, oxyfluorfen at two-fold field concentration (360 g ai/ha)
[10] = oxyfluorfen 360 g ai/ha (2x field concentration)
[11] = oxyfluorfen 720 g ai/ha (4x field concentration)
[12] = flumioxazin 120 g ai/ha (2x field concentration)
[13] = flumioxazin 240 g ai/ha (4x field concentration)

| Molecule | tolerance to saflufenacil (transgenic maize plants [1]; [4]) | The grade of pesticide damage/plant: number of plants of grade 0 (transgenic maize plants [1]; [6]) | The grade of pesticide damage/plant: number of plants of grade 1 (transgenic maize plants [1]; [6]) | The grade of pesticide damage/plant: number of plants of grade 2 (transgenic maize plants [1]; [6]) | The grade of pesticide damage/plant: number of plants of grade 3 (transgenic maize plants [1]; [6]) | The grade of pesticide damage/plant: number of plants of grade 0 (transgenic maize plants [1]; [7]) | The grade of pesticide damage/plant: number of plants of grade 1 (transgenic maize plants [1]; [7]) | The grade of pesticide damage/plant: number of plants of grade 2 (transgenic maize plants [1]; [7]) | The grade of pesticide damage/plant: number of plants of grade 3 (transgenic maize plants [1]; [7]) | tolerance to oxyfluorfen (transgenic maize plants [2]; [8]) | The grade of pesticide damage/plant: number of plants of grade 0 (transgenic maize plants [2]; [10]) | The grade of pesticide damage/plant: number of plants of grade 1 (transgenic maize plants [2]; [10]) | The grade of pesticide damage/plant: number of plants of grade 2 (transgenic maize plants [2]; [10]) | The grade of pesticide damage/plant: number of plants of grade 3 (transgenic maize plants [2]; [10]) | The grade of pesticide damage/plant: number of plants of grade 0 (transgenic maize plants [2]; [11]) | The grade of pesticide damage/plant: number of plants of grade 1 (transgenic maize plants [2]; [11]) | The grade of pesticide damage/plant: number of plants of grade 2 (transgenic maize plants [2]; [11]) | The grade of pesticide damage/plant: number of plants of grade 3 (transgenic maize plants [2]; [11]) | The grade of pesticide damage/plant: number of plants of grade 0 (transgenic maize plants [3]; [12]) | The grade of pesticide damage/plant: number of plants of grade 1 (transgenic maize plants [3]; [12]) | other results |
| --- | --- | --- | --- | --- | --- | --- | --- | --- | --- | --- | --- | --- | --- | --- | --- | --- | --- | --- | --- | --- | --- |
| B1 | high-resistant tolerance | 16 | 0 | 0 | 0 | 16 | 0 | 0 | 0 | high-resistant tolerance | 16 | 0 | 0 | 0 | 16 | 0 | 0 | 0 | 16 | 0 | tolerance to saflufenacil (transgenic maize plants [1]; [5]): high-resistant tolerance; tolerance to oxyfluorfen (transgenic maize plants [2]; [9]): high-resistant tolerance; The grade of pesticide damage/plant: number of plants of grade 2 (transgenic maize plants [3]; [12]): 0; The grade of pesticide damage/plant: number of plants of grade 3 (transgenic maize plants [3]; [12]): 0; The grade of pesticide damage/plant: number of plants of grade 0 (transgenic maize plants [3]; [13]): 16; The grade of pesticide damage/plant: number of plants of grade 1 (transgenic maize plants [3]; [13]): 0; The grade of pesticide damage/plant: number of plants of grade 2 (transgenic maize plants [3]; [13]): 0; The grade of pesticide damage/plant: number of plants of grade 3 (transgenic maize plants [3]; [13]): 0; tolerance to flumioxazin (transgenic maize plants [3]): high-resistant tolerance |
| B2 | high-resistant tolerance | 16 | 0 | 0 | 0 | 16 | 0 | 0 | 0 | high-resistant tolerance | 16 | 0 | 0 | 0 | 16 | 0 | 0 | 0 | 16 | 0 | tolerance to saflufenacil (transgenic maize plants [1]; [5]): high-resistant tolerance; tolerance to oxyfluorfen (transgenic maize plants [2]; [9]): high-resistant tolerance; The grade of pesticide damage/plant: number of plants of grade 2 (transgenic maize plants [3]; [12]): 0; The grade of pesticide damage/plant: number of plants of grade 3 (transgenic maize plants [3]; [12]): 0; The grade of pesticide damage/plant: number of plants of grade 0 (transgenic maize plants [3]; [13]): 16; The grade of pesticide damage/plant: number of plants of grade 1 (transgenic maize plants [3]; [13]): 0; The grade of pesticide damage/plant: number of plants of grade 2 (transgenic maize plants [3]; [13]): 0; The grade of pesticide damage/plant: number of plants of grade 3 (transgenic maize plants [3]; [13]): 0; tolerance to flumioxazin (transgenic maize plants [3]): high-resistant tolerance |
| B3 | basically no tolerance | 0 | 0 | 7 | 9 | 0 | 0 | 1 | 15 | no tolerance | 0 | 0 | 8 | 8 | 0 | 0 | 0 | 16 | 0 | 0 | share of the plants that exhibited no tolerance (transgenic maize plants [1]; [5]): about 56; share of the plants that exhibited no tolerance (transgenic maize plants [2]; [9]): about 50%; The grade of pesticide damage/plant: number of plants of grade 2 (transgenic maize plants [3]; [12]): 3; The grade of pesticide damage/plant: number of plants of grade 3 (transgenic maize plants [3]; [12]): 13; The grade of pesticide damage/plant: number of plants of grade 0 (transgenic maize plants [3]; [13]): 0; The grade of pesticide damage/plant: number of plants of grade 1 (transgenic maize plants [3]; [13]): 0; The grade of pesticide damage/plant: number of plants of grade 2 (transgenic maize plants [3]; [13]): 0; The grade of pesticide damage/plant: number of plants of grade 3 (transgenic maize plants [3]; [13]): 16; tolerance to flumioxazin (transgenic maize plants [3]): basically no tolerance |
